The values below come from patent US20170130210.

For series [1], the target named is Pfk-I (untagged), N-terminal 6x-His-tagged phosphofructokinase-I without C-terminal degradation tag (UniProt P0A796).
For series [2], the target named is Pfk-I (LAA), N-terminal 6x-His-tagged Pfk-I with the native ssrA tag (LAA) appended to the C terminus (UniProt P0A796).
In series [3] the target is Pfk-I (DAS+4), N-terminal 6x-His-tagged Pfk-I with the modified DAS+4 tag at the C terminus (UniProt P0A796).
Chain of Pfk-I (DAS+4), N-terminal 6x-His-tagged Pfk-I with the modified DAS+4 tag at the C terminus (P0A796 other isoform, or with tags, fused parts or gaps): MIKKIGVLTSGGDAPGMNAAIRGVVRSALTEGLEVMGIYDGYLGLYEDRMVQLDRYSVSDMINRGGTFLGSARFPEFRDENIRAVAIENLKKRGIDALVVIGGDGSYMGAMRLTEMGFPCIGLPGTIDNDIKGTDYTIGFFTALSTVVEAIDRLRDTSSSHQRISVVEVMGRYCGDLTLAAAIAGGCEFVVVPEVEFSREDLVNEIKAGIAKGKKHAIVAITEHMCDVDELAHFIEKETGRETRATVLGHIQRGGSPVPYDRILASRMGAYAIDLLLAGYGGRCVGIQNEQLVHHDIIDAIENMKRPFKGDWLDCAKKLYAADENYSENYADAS

Chain of Pfk-I (untagged), N-terminal 6x-His-tagged phosphofructokinase-I without C-terminal degradation tag (P0A796 whole entry): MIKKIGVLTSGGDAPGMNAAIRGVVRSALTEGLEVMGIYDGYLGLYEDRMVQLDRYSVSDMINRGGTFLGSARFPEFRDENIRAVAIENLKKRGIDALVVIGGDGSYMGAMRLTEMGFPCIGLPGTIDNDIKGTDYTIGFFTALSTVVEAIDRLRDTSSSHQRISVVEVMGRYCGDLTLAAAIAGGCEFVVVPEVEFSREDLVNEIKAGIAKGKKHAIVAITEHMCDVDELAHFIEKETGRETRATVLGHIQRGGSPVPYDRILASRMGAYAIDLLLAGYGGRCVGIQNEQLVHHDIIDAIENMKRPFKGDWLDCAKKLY
Chain of Pfk-I (LAA), N-terminal 6x-His-tagged Pfk-I with the native ssrA tag (LAA) appended to the C terminus (P0A796 other isoform, or with tags, fused parts or gaps): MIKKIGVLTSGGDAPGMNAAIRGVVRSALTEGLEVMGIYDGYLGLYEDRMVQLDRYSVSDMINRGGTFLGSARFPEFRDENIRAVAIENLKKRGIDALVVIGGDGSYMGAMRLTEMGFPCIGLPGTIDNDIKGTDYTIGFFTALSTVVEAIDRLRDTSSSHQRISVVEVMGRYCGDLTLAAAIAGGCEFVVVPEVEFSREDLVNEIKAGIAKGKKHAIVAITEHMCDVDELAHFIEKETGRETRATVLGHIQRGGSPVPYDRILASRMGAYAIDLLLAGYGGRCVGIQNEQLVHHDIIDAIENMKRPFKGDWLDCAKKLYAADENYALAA

On to “ClpXP protease (0.3 µM ClpX6 and 0.9 µM ClpP14)”, for which the “in vitro degradation by ClpXP with ATP, SDS-PAGE time course” value in series [1] is “does not show significant degradation during the 60 minute incubation with ClpXP”; in series [2] it was “shows almost complete disappearance by 20 minutes”. In addition, the “in vitro degradation by ClpXP with ATP, SDS-PAGE time course, no SspB” value in series [3] was “no significant degradation was observed over the 60 minute period”.
